# Literature values, collected in paper PMC6903724.
# Target: IL-18 (Homo sapiens) (UniProt Q14116)
# Sequence (Q14116 37-193): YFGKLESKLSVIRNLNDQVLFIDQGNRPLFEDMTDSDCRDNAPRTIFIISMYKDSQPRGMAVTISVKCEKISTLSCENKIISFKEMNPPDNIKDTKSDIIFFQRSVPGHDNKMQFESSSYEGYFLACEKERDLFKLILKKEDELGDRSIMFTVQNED
# Sequence of IL-18BP (O95998 31-194): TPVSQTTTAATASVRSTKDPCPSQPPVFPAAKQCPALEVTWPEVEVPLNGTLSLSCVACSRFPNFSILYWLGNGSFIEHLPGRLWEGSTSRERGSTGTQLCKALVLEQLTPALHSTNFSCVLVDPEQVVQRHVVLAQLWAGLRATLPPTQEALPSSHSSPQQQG
substance,measurement,value
IL-18BP (from UniProt O95998),Kd,400 pM
